Measured values reported in publication PMC3658177.

Tested on: GST-YTHDF2 (human)
Assay: EMSA
Details: one N6-methyladenosine

Work on m6A-RNA yielded a Kd of 0.465 µM.
